# Assay results as given in US20110300138A1 (published 2011).
# Experiments:
# Test in all cases: cell-based or functional assay
# [1] = molecular target: human TSH receptor (full length, wild type) expressed in CHO cells (human) (UniProt P16473)
# [2] = molecular target: human TSH receptor (full length, wild type) expressed in CHO cells (human) (UniProt P16473); remark: listed apart in the source
# [3] = molecular target: human TSHR (wild type, full length) expressed in CHO cells (human) (UniProt P16473)
# [4] = molecular target: human TSH receptor (TSHR), wild type, expressed in CHO cells (human) (UniProt P16473)
# [5] = molecular target: human TSH receptor (wild type), expressed on transfected CHO cells (human) (UniProt P16473)
# [6] = molecular target: human TSHR expressed in CHO cells (human) (UniProt P16473)
substance,measurement,setting,value
9D33 IgG (antibody),% Inhibition; T4 serum + 100 µg/mL 9D33,[1],94.8%
same,% Inhibition; T5 serum + 100 µg/mL 9D33,[1],95.6%
same,% Inhibition; T6 serum + 100 µg/mL 9D33,[1],94%
same,Cyclic AMP concentration; 100 µg/mL 9D33 alone,[1],2 pmol/mL
same,Cyclic AMP concentration; HBD + 100 µg/mL 9D33,[1],3.9 pmol/mL
same,Cyclic AMP concentration; T4 serum + 100 µg/mL 9D33,[1],4.1 pmol/mL
same,Cyclic AMP concentration; T5 serum + 100 µg/mL 9D33,[1],2.9 pmol/mL
same,Cyclic AMP concentration; T6 serum + 100 µg/mL 9D33,[1],5 pmol/mL
same,% Inhibition; T7 serum + 100 µg/mL 9D33 IgG,[2],93%
same,% Inhibition; T8 serum + 100 µg/mL 9D33 IgG,[2],95%
same,% Inhibition; T9 serum + 100 µg/mL 9D33 IgG,[2],87.2%
same,Cyclic AMP concentration; 100 µg/mL 9D33 IgG alone,[2],2.4 pmol/mL
same,Cyclic AMP concentration; HBD + 100 µg/mL 9D33 IgG,[2],5.4 pmol/mL
same,Cyclic AMP concentration; T7 serum + 100 µg/mL 9D33 IgG,[2],6.3 pmol/mL
same,Cyclic AMP concentration; T8 serum + 100 µg/mL 9D33 IgG,[2],4.3 pmol/mL
same,Cyclic AMP concentration; T9 serum + 100 µg/mL 9D33 IgG,[2],7.2 pmol/mL
same,% Inhibition of T13 serum stimulation; 100 µg/mL 9D33 IgG,[3],92.2%
same,% Inhibition of T14 serum stimulation; 100 µg/mL 9D33 IgG,[3],89.7%
same,% Inhibition of T15 serum stimulation; 100 µg/mL 9D33 IgG,[3],92.4%
same,Cyclic AMP concentration; 100 µg/mL 9D33 IgG alone,[3],2.3 pmol/mL
same,Cyclic AMP concentration; HBD + 100 µg/mL 9D33 IgG,[3],3.3 pmol/mL
same,Cyclic AMP concentration; T13 serum + 100 µg/mL 9D33 IgG,[3],3.8 pmol/mL
same,Cyclic AMP concentration; T14 serum + 100 µg/mL 9D33 IgG,[3],2.8 pmol/mL
same,Cyclic AMP concentration; T15 serum + 100 µg/mL 9D33 IgG,[3],3.9 pmol/mL
same,% Inhibition of constitutive activity; 0.001 µg/mL 9D33 IgG,[4],0%
same,% Inhibition of constitutive activity; 0.01 µg/mL 9D33 IgG,[4],0%
same,% Inhibition of constitutive activity; 0.1 µg/mL 9D33 IgG,[4],0%
same,% Inhibition of constitutive activity; 0.3 µg/mL 9D33 IgG,[4],0%
same,% Inhibition of constitutive activity; 1 µg/mL 9D33 IgG,[4],0%
same,% Inhibition of constitutive activity; 3 µg/mL 9D33 IgG,[4],0%
same,% Inhibition of constitutive activity; 10 µg/mL 9D33 IgG,[4],0%
same,% Inhibition of constitutive activity; 100 µg/mL 9D33 IgG,[4],0%
same,Cyclic AMP concentration (constitutive activity); 0.001 µg/mL 9D33 IgG,[4],18.8 pmol/mL
same,Cyclic AMP concentration (constitutive activity); 0.01 µg/mL 9D33 IgG,[4],20.3 pmol/mL
same,Cyclic AMP concentration (constitutive activity); 0.1 µg/mL 9D33 IgG,[4],23.9 pmol/mL
same,Cyclic AMP concentration (constitutive activity); 0.3 µg/mL 9D33 IgG,[4],26.4 pmol/mL
same,Cyclic AMP concentration (constitutive activity); 1 µg/mL 9D33 IgG,[4],35.5 pmol/mL
same,Cyclic AMP concentration (constitutive activity); 3 µg/mL 9D33 IgG,[4],32.3 pmol/mL
same,Cyclic AMP concentration (constitutive activity); 10 µg/mL 9D33 IgG,[4],34.3 pmol/mL
same,Cyclic AMP concentration (constitutive activity); 100 µg/mL 9D33 IgG,[4],38 pmol/mL
same,% Inhibition; 9D33 IgG 0.01 µg/mL + T11,[5],17.1%
same,% Inhibition; 9D33 IgG 0.1 µg/mL + T11,[5],50.4%
same,% Inhibition; 9D33 IgG 1 µg/mL + T11,[5],87.7%
same,% Inhibition; 9D33 IgG 10 µg/mL + T11,[5],90.1%
same,% Inhibition; 9D33 IgG 100 µg/mL + T11,[5],94.8%
same,Cyclic AMP concentration; 9D33 IgG 0.01 µg/mL + T11,[5],20.9 pmol/mL
same,Cyclic AMP concentration; 9D33 IgG 0.1 µg/mL + T11,[5],12.5 pmol/mL
same,Cyclic AMP concentration; 9D33 IgG 1 µg/mL + T11,[5],3.1 pmol/mL
same,Cyclic AMP concentration; 9D33 IgG 10 µg/mL + T11,[5],2.5 pmol/mL
same,Cyclic AMP concentration; 9D33 IgG 100 µg/mL + T11,[5],2.1 pmol/mL
same,Cyclic AMP concentration; 9D33 IgG 100 µg/mL alone,[5],1.3 pmol/mL
same,% Inhibition; 3 ng/mL pTSH + 0.001 µg/mL 9D33 IgG,[6],13%
same,% Inhibition; 3 ng/mL pTSH + 0.01 µg/mL 9D33 IgG,[6],5%
same,% Inhibition; 3 ng/mL pTSH + 0.1 µg/mL 9D33 IgG,[6],28%
same,% Inhibition; 3 ng/mL pTSH + 1 µg/mL 9D33 IgG,[6],67%
same,% Inhibition; 3 ng/mL pTSH + 10 µg/mL 9D33 IgG,[6],87%
same,% Inhibition; 3 ng/mL pTSH + 100 µg/mL 9D33 IgG,[6],95%
